Measurements taken from patent publication US20090202520A1.

Target: serum amyloid P (SAP) (human), P02743
Assay: SPR (Biacore X100), SAP on CM5 chip, soluble receptor flowed, single cycle kinetics, KD = Kd/Ka
Settings: remark: other sources report otherwise

serum amyloid P (SAP) (human), P02743, sequence (P02743 20-223): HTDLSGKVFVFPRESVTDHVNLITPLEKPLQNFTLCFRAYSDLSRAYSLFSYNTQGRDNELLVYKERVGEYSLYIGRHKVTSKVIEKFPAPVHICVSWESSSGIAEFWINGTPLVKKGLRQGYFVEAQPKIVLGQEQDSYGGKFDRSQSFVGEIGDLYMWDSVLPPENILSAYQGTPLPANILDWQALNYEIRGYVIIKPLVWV

B1: soluble recombinant FcγRIIIB (sFcγRIIIB), O75015 17-200 (receptor, UniProt O75015 17-200, looked up, not shown: small tags and cut ends)
chain: GMRTEDLPKAVVFLEPQWYSVLEKDSVTLKCQGAYSPEDNSTQWFHNENLISSQASSYFIDAATVNDSGEYRCQTNLSTLSDPVQLEVHIGWLLLQAPRWVFKEEDPIHLRCHSWKNTALHKVTYLQNGKDRKYFHHNSDFHIPKATLKDSGSYFCRGLVGSKNVSSETVNITITQGLAVSTIS
Work on B1 yielded a Kd of 0.4 nM.
